# Earlier results as cited in US20060182683A1, “Methods for reduced renal uptake of protein conjugates” (Center for Molecular Medicine and Immunology, priority 1995, published 2006).
# T1: mammalian placental ribonuclease inhibitor (Homo sapiens, UniProt P13489)
# T1 sequence (P13489 1-461): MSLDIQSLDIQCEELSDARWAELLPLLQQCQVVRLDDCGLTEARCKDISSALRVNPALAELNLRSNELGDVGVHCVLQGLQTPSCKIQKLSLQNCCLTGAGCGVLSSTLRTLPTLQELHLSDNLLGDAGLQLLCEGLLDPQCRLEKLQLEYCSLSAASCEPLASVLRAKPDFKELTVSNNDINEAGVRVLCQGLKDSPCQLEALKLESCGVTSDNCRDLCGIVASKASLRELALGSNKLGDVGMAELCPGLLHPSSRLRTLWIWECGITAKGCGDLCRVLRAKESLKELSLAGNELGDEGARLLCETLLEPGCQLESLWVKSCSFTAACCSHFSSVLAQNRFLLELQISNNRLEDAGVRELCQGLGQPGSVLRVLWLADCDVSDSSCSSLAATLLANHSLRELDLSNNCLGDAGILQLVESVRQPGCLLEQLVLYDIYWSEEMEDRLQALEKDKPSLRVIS
# B1: ranpirnase (protein, UniProt P22069 1-104, looked up)
# Protein P-30: QDWLTFQKKHITNTRDVDCDNIMSTNLFHCKDKNTFIYSRPEPVKAICKGIIASKNVLTTSEFYLSDCNVTSRPCKYKLKKSTNKFCVTCENQAPVHFVGVGSC
# notes: non-mammalian ribonuclease (RNAse), molecular weight 12,000, purified from Rana pipiens oocytes and early embryos
# Experiments:
# Xenopus oocytes = details: microinjected into Xenopus oocytes; read-out: IC50, inhibition of protein synthesis; cited from earlier work
# [1] = test system: protein synthesis in a rabbit reticulocyte lysate; details: read-out: IC50, inhibition of protein synthesis; cited from earlier work
# [2] = biological target: T1, mammalian placental ribonuclease inhibitor; details: cited from earlier work
# rats = details: dose range 0.01-0.02 mg/kg; cited from earlier work
# [3] = test system: patients suffering from a variety of relapsing and resistant tumors; details: intravenous; mainly due to renal toxicity; cited from earlier work
# dogs = details: 0.005-0.15 mg/kg; cited from earlier work
# [4] = test system: M109 Madison lung carcinoma; details: cited from earlier work
molecule,measurement,setting,value
B1,IC50,Xenopus oocytes,0.1 nM
same,IC50,[1],0.01 nM
same,inhibition by mammalian placental ribonuclease inhibitor,[2],not inhibited
same,toxicity,rats,"predictable, dose-dependent and reversible toxicity"
same,maximum tolerated dose,[3],960 μg/m^2
same,toxicity,dogs,"predictable, dose-dependent and reversible toxicity"
same,survival,"[4]; daily and weekly schedules, intraperitoneal",significantly prolonged survival
same,"animals surviving long-term, apparently cured",[4]; weekly schedule,six of eighteen
